# Source: patent publication US20230078173A1 (ELIXIRON IMMUNOTHERAPEUTICS HONG KONG, published 2023)
# Substitutions are numbered along the chain they refer to. In names and notes the source's numbering stands.
# T1: IL10Rα-Fc fusion protein (human, UniProt Q13651 22-235)
# T1 construct: Bought from R&D Systems; also called human IL10Rα
# T1 sequence (looked up): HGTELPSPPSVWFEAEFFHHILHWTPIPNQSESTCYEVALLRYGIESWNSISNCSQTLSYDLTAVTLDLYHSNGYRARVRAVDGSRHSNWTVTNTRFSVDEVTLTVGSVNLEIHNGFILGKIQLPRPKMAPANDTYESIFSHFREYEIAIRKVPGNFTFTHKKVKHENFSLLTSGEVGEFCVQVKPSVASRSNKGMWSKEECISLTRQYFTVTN
# B1: PHS102.HSYPP31F (antibody, human IgG1, kappa, N297A, V domains shown)
# VH: EVQLVESGGGLVQPGGSLRLSCAASGFTIEDSYIHWVRQAPGKGLEWVARIDPITGLTHYADSVKGRFTISADTSKNTAYLQMNSLRAEDTAVYYCARAFSWFPDYWGQGTLVTVSS
# VL: DIQMTQSPSSLSASVGDRVTITCRAGQDVYKAVAWYQQKPGKAPKLLIYWSTNLYSGVPSRFSGSGSGTDFTLTISSLQPEDFATYYCQQIMEPPVTFGQGTKVEIKR
# notes: full-length human IgG1-N297A / kappa
# B2: PHS102.HSYPP411C (antibody, human IgG1, kappa, N297A, V domains shown)
# VH: EVQLVESGGGLVQPGGSLRLSCAASGFTIDNTYIHWVRQAPGKGLEWVARIDPANGKTTYADSVKGRFTISADTSKNTANLQMNSLRAEDTAVYYCARSFSWWADYWGQGTLVTVSS
# VL: B1 VL with I91F, M92N, E93L, P94Q, V96T
# notes: as for B1
# B3: PHS102 (antibody, human IgG1, kappa, N297A)
# heavy: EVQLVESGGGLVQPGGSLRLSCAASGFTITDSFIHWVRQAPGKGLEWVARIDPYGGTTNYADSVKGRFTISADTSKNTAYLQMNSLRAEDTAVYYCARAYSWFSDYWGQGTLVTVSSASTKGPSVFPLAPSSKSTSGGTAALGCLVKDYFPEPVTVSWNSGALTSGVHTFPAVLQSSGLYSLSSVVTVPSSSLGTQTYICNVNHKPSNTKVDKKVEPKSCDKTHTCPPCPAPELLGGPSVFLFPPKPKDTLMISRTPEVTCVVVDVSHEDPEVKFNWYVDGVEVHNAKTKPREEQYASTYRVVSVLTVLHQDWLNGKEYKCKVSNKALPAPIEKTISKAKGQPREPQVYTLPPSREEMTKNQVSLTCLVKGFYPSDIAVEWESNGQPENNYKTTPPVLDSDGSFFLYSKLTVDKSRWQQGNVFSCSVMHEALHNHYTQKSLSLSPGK
# light: DIQMTQSPSSLSASVGDRVTITCRAGQDVYKAVAWYQQKPGKAPKLLIYWSTNLYSGVPSRFSGSGSGTDFTLTISSLQPEDFATYYCQQGSTWPLTFGQGTKVEIKRTVAAPSVFIFPPSDEQLKSGTASVVCLLNNFYPREAKVQWKVDNALQSGNSQESVTEQDSKDSTYSLSSTLTLSKADYEKHKVYACEVTHQGLSSPVTKSFNRGEC
# B4: PHS102/IL10 (antibody, human IgG1, kappa, N297A)
# heavy: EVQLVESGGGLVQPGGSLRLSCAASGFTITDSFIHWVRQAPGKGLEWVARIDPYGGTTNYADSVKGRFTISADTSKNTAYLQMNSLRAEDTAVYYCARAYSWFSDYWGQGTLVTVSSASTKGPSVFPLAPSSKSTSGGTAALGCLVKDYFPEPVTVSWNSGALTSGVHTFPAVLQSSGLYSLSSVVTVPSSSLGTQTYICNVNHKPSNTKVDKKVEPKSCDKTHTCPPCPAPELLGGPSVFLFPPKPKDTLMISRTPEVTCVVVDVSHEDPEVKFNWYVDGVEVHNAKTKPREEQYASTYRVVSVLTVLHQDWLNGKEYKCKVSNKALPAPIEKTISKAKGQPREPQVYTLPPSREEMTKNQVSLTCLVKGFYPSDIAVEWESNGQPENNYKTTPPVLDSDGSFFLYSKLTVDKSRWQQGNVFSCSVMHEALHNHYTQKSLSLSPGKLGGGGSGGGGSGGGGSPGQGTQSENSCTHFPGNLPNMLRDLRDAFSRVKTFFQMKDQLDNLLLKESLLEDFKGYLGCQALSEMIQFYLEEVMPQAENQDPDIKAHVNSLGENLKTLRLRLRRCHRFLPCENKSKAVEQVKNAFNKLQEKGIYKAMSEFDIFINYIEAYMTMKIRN
# light: B3 light
# B5: PHS102.YT7H/IL10 (antibody, human IgG1, kappa, N297A)
# heavy: not shown
# light: B3 light with G91H, S92G, T93N, W94A, L96I
# B6: PHS102.YT7A (antibody, human IgG1, kappa, N297A)
# heavy: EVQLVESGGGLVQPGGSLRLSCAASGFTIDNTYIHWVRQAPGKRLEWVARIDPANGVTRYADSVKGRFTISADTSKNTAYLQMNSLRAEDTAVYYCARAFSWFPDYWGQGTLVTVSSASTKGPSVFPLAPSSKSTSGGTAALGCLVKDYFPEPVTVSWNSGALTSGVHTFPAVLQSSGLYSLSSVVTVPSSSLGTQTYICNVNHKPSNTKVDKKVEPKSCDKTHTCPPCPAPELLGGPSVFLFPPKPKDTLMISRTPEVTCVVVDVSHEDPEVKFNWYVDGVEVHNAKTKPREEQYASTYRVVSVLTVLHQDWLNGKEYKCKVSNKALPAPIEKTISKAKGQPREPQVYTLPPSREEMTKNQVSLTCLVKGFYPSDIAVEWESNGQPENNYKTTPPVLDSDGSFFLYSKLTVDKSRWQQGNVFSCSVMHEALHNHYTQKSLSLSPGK
# light: B3 light with G91Y, S92G, T93I, W94A, L96P
# notes: as for B1
# B7: PHS102.YT7A/IL10 (antibody, human IgG1, kappa, N297A)
# heavy: not shown
# light: B3 light with G91Y, S92G, T93I, W94A, L96P
# B8: PHS102.YT7H (antibody, human IgG1, kappa, N297A)
# heavy: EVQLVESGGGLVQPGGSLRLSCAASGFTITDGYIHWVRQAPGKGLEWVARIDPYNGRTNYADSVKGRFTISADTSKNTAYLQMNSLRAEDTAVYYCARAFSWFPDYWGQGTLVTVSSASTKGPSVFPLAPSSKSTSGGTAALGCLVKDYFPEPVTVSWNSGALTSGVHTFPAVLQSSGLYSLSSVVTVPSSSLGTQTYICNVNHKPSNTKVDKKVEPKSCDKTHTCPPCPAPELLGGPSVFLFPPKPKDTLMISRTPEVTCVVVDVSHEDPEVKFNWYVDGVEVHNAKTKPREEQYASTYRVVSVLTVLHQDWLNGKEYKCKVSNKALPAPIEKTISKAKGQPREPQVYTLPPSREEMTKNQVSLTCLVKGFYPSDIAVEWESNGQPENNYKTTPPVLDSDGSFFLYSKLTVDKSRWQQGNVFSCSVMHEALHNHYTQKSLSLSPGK
# light: B3 light with G91H, S92G, T93N, W94A, L96I
# notes: as for B1
# B9: Avelumab/IL10 (antibody, human IgG1, lambda)
# heavy: not shown
# light: QSALTQPASVSGSPGQSITISCTGTSSDVGGYNYVSWYQQHPGKAPKLMIYDVSNRPSGVSNRFSGSKSGNTASLTISGLQAEDEADYYCSSYTSSSTRVFGTGTKVTVLGQPKANPTVTLFPPSSEELQANKATLVCLISDFYPGAVTVAWKADGSPVKAGVETTKPSKQSNNKYAASSYLSLTPEQWKSHRSYSCQVTHEGSTVEKTVAPTECS
# B10: Durvalumab/IL10 (antibody, human IgG1, kappa, N297A)
# heavy: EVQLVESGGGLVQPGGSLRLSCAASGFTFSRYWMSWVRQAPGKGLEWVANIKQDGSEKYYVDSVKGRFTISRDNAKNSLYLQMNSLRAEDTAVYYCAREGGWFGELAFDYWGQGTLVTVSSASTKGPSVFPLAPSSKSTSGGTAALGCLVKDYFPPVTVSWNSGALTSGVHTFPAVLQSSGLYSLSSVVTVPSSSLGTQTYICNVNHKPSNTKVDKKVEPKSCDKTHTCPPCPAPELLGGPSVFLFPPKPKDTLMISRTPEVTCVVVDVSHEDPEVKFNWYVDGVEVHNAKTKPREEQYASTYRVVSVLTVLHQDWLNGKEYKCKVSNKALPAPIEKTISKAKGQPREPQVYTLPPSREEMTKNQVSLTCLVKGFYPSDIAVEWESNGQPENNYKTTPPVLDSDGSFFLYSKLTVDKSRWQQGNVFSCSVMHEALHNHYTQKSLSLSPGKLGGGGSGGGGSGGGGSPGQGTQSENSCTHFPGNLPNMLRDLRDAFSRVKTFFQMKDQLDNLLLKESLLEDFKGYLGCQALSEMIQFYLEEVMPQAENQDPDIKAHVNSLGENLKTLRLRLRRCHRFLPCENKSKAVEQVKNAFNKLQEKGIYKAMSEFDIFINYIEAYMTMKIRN
# light: EIVLTQSPGTLSLSPGERATLSCRASQRVSSSYLAWYQQKPGQAPRLLIYDASSRATGIPDRFSGSGSGTDFTLTISRLEPEDFAWYYCQQYGSLPWTFGQGTKVEIKRTVAAPSVFIFPPSDEQLKSGTASVVCLLNNFYPREAKVQWKVDNALQSGNSQESVTEQDSKDSTYSLSSTLTLSKADYEKHKVYACEVTHQGLSSPVTKSFNRGEC
# B11: PHS219/IL10 (antibody, human IgG1, kappa, N297A)
# heavy: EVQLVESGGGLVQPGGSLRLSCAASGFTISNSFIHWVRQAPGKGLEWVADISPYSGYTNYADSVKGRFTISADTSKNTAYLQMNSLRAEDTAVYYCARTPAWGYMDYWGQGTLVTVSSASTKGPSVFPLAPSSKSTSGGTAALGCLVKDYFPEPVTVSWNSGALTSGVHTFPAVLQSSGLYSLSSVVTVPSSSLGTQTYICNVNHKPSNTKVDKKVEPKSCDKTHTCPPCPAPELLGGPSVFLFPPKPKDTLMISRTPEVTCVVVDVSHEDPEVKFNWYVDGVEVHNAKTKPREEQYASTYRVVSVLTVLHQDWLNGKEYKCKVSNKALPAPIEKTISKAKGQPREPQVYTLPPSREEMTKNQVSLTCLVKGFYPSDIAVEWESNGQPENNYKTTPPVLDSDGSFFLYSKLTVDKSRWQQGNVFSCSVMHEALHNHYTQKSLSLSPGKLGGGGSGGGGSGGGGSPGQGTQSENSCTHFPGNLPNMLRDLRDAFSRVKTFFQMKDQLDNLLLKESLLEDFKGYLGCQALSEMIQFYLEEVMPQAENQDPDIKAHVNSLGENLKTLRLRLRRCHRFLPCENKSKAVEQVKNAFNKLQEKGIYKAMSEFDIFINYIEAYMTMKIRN
# light: DIQMTQSPSSLSASVGDRVTITCRASQDVSSSVAWYQQKPGKAQKLLISWATSLYSGVPSRFSGSGSGTDFTLTISSLQPEDFATYYCQQYNNFPYTFGQGTKVEIKRTVAAPSVFIFPPSDEQLKSGTASVVCLLNNFYPREAKVQWKVDNALQSGNSQESVTEQDSKDSTYSLSSTLTLSKADYEKHKVYACEVTHQGLSSPVTKSFNRGEC
# B12: Atezolizumab/IL10 (antibody)
# heavy: not shown
# light: DIQMTQSPSSLSASVGDRVTITCRASQDVSTAVAWQQKPGKAPKLLIYSASFLYSGVPSRFSGSGSGTDFTLTISSLQPEDFATYYCQQYLYHPATFGQGTKVEIKRRTVAAPSVFIFPPSDEQLKSGTASVVCLLNNFYPREAKVQWKVDNALQSGNSQESVTEQDSKDSTYSLSSTLTLSKADYEKHKVYACEVTHQGLSSPVTKSFNRGEC
# B13: Atezolizumab (antibody)
# heavy: not shown
# light: B12 light
# notes: also called YW243.55.S70; MPDL3280A
# B14: PHS219 (antibody, human IgG1, kappa, N297A)
# heavy: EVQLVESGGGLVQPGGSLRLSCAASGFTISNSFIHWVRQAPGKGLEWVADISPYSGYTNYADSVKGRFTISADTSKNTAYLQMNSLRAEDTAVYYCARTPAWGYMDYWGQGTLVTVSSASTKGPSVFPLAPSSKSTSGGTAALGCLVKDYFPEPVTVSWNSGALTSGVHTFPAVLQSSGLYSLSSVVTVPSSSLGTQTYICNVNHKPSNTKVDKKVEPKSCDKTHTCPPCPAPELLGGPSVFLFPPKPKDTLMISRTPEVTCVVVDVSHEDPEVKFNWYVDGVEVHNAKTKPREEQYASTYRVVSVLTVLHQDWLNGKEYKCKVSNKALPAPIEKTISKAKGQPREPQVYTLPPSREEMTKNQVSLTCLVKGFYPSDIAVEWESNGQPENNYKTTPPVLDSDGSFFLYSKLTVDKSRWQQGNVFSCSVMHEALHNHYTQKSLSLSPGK
# light: B11 light
# B15: PHS102.YT6D (antibody, human IgG1, kappa, N297A, V domains shown)
# VH: B1 VH with E30S, S32G, I54L, L57R, H59M, F103W
# VL: B1 VL with E93S, V96P
# B16: PHS102.YP11F (antibody, human IgG1, kappa, N297A, V domains shown)
# VH: B2 VH with A54V, N55S, K57R, T59R, N80D, S99A, W103F, A104P
# VL: B1 VL with I91F, M92G, E93A, P94T, V96I
# notes: as for B1
# B17: PHS102.YT10H (antibody, human IgG1, kappa, N297A, V domains shown)
# VH: B1 VH with E30S, S32A, D52E, I54L, T55S, L57R, H59D, P104M
# VL: B1 VL with T74M, I91H, M92D, E93K, P94T, V96T
# notes: as for B1
# B18: PHS102.YP7G (antibody, human IgG1, kappa, N297A, V domains shown)
# VH: B1 VH with E30D, S32T, I54A, T55N, L57M, H59R, T69M
# VL: B1 VL with I91G, M92S, E93T, P94W, V96L
# notes: as for B1
# Target: PD-L1 on PD-L1-presenting U2OS bioassay cells (UniProt Q9NZQ7 19-290)
# Sequence (Q9NZQ7 19-290): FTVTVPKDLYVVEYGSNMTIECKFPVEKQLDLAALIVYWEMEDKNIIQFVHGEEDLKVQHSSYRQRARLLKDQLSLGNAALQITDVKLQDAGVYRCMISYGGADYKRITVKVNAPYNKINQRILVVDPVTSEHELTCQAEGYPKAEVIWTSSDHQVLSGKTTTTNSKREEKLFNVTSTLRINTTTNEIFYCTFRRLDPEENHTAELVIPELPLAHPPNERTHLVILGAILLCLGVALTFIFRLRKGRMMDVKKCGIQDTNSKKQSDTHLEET
# Assay: cell-based or functional assay
row,Binder,"IC50, blocking PD-1/PD-L1 signaling (PathHunter PD-1 Signaling Bioassay, U2OS PD-L1 cells + Jurkat PD-1 signaling cells) [nM]"
1,B1,3.56
2,B2,3.74
3,B3,3.18
4,B4,4.22
5,B5,2.47
6,B6,6.07
7,B7,4.87
8,B8,3.48

# Target: T1, IL10Rα-Fc fusion protein
# Assay: ELISA, IL10Rα-Fc immobilised (1 µg/mL)
# Protocol: (§1) The wells were washed with wash solution (0.05% Tween20 in imidazole-buffered saline) and blocked with 1% BSA. […] After incubation at 37° C. for 1 hr, the wells were washed with wash solution. Peroxidase-conjugated Goat anti-human kappa Light chain antibody (Sigma) was applied to each well at 37° C. for 1 h incubation. […] After washing, the wells were developed with TMB substrate for 5-10 min at RT and then stopped with 1 N HCl. Thereafter, absorbance was measured at 450 nm and 650 nm. EC50 and IC50 values were calculated using GraphPad Prism7.
row,Binder,EC50 [nM]
1,B9,25.9
2,B4,94.3
3,B10,37.5
4,B11,66.3
5,B12,87.2

# Target: T2, recombinant cynomolgus PD-L1 (cynomolgus monkey, UniProt Q9NZQ7 19-238 (human entry))
# T2 construct: also called cynoPD-L1; Cynomolgus PD-L1.ECD
# T2 sequence (Q9NZQ7 other isoform, or with tags, fused parts or gaps limits assumed): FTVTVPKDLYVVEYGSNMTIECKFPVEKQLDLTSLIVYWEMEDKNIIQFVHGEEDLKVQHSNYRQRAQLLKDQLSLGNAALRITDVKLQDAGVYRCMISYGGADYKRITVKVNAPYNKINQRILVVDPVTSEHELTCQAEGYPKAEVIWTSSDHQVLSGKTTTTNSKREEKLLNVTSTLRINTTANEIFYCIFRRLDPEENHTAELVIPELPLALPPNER
# Assay: ELISA, cynomolgus PD-L1 immobilised (1 µg/mL)
# Protocol: as §1
row,Binder,EC50 [nM]
1,B3,0.216
2,B13,0.14

# Target: T3, recombinant human PD-L1-mFc fusion protein (human, UniProt Q9NZQ7 19-238)
# T3 construct: also called hPD-L1; huPD-L1
# T3 sequence (Q9NZQ7 19-238): as the sequence (Q9NZQ7 other isoform, or with tags, fused parts or gaps limits assumed) above, with T33A, S34A, N62S, Q68R, R82Q, L173F, A185T, I192T, L215H counted along it
# Assay: competition ELISA, PD-L1 immobilised, competitor biotin-PD-1-Fc (30 µg/mL)
# Protocol: To test the competition activity, serial dilutions of anti-PD-L1 or anti-PD-L1/IL10 fusion proteins were added.
# A recombinant human PD-L1-mFc fusion protein (1 μg/mL), recombinant cynomolgus PD-L1 (1 μg/mL; Sino Biological), or an IL10Rα-Fc fusion protein (1 μg/mL, R&D Systems) were immobilized on 96 well microtiter plate at a concentration of 1 μg/ml in Coating Solution (SeraCare) overnight at 4° C. The wells were washed with wash solution (0.05% Tween20 in imidazole-buffered saline) and blocked with 1% BSA. Serial dilutions of anti-PD-L1 or anti-PD-L1/IL10 fusion proteins were added to wells. After incubation at 37° C. for 1 hr, the wells were washed with wash solution. Peroxidase-conjugated Goat anti-human kappa Light chain antibody (Sigma) was applied to each well at 37° C. for 1 h incubation. […] After washing, the wells were developed with TMB substrate for 5-10 min at RT and then stopped with 1 N HCl. Thereafter, absorbance was measured at 450 nm and 650 nm. EC50 and IC50 values were calculated using GraphPad Prism7.
row,Binder,IC50 [nM]
1,B3,0.182
2,B4,0.061
3,B10,0.188
4,B11,1.2
5,B14,38900
6,B13,0.239
7,B12,0.124

# Target: T3, recombinant human PD-L1-mFc fusion …
# Assay: ELISA, human PD-L1-mFc immobilised (1 µg/mL), anti-human kappa-HRP detection
# Protocol: as §1
row,Binder,EC50 [nM]
1,B3,0.0784
2,B4,0.0798
3,B10,0.121
4,B11,0.164
5,B14,0.204
6,B12,0.0865

# Target: T4, recombinant human PD-L1-His (human, UniProt Q9NZQ7 19-238)
# T4 construct: Analyte of the BLI assay; also called hPD-L1
# T4 sequence (Q9NZQ7 19-238): as the sequence (Q9NZQ7 other isoform, or with tags, fused parts or gaps limits assumed) above, with T33A, S34A, N62S, Q68R, R82Q, L173F, A185T, I192T, L215H counted along it
# Assay: BLI (Octet RED96), antibody captured on AHC biosensor, PD-L1-His in solution, 1:1 model;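 also: rates obtained by 1:1 Langmuir fitting of the binding response, using a 2.5 min association phase then a 5 min dissociation phase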
# Protocol: Rate constants were calculated by curve fitting analyses (1:1 Langmuir model) of binding response with a 2.5-minute association and 5-minute dissociation interaction time.
Binder,Kd [nM],koff [s⁻¹],kon [M⁻¹ s⁻¹]
B1,1.88,0.000542,288000
B2,2.03,0.000653,321000
B15,2.16,0.000713,330000
B16,1.84,0.000615,334000
B17,1.92,0.00067,350000
B3,14.4,0.00679,473000
B6,1.99,0.000603,303000
B18,5.51,0.00136,247000
B8,6.16,0.00125,203000
